In publication PMC4856418, “Inactive mutants of human pyridoxine 5′‐phosphate oxidase: a possible role for a noncatalytic pyridoxal 5′‐phosphate tight binding site” (FEBS Open Bio, 2016):

How the values were obtained:
Experiment in all cases: fluorescence polarisation; 1 μM FMI-labeled hPNPO in a 96-well plate, B6 enzymes added at 0 to 20 μM, incubated at 25 °C for 5 h; excitation 495 nm, emission 535 nm; curves fitted to a simple 1:1 model
Conditions in all cases: both partners purified
[1] = target: T1, E. coli serine hydroxymethyltransferase (eSHMT) (E. coli, UniProt P0A825 1-417)
T1 construct: E. coli serine hydroxymethyltransferase; also called E. coli SHMT
T1 sequence (looked up): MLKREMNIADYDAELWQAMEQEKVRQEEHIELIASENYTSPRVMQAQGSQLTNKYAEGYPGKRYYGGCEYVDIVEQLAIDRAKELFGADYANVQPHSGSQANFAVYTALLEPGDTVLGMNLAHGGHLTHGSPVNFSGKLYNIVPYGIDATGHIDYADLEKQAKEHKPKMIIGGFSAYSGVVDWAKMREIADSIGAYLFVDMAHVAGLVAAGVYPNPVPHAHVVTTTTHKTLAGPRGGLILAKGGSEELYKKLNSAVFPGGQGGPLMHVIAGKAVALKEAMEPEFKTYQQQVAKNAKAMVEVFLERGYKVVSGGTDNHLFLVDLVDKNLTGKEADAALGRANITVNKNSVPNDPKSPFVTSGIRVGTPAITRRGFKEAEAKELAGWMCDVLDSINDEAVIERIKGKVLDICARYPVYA

[2] = target: T2, rabbit cytosolic serine hydroxymethyltransferase (rcSHMT) (rabbit, UniProt P07511 1-484)
T2 construct: rabbit cytosolic serine hydroxymethyltransferase; In the PLP transfer experiments the apo form (PLP removed with D-alanine) was used; the fluorescence polarization text names rcSHMT without saying apo or holo; also called apo-rcSHMT; apo-SHMT
T2 sequence (looked up): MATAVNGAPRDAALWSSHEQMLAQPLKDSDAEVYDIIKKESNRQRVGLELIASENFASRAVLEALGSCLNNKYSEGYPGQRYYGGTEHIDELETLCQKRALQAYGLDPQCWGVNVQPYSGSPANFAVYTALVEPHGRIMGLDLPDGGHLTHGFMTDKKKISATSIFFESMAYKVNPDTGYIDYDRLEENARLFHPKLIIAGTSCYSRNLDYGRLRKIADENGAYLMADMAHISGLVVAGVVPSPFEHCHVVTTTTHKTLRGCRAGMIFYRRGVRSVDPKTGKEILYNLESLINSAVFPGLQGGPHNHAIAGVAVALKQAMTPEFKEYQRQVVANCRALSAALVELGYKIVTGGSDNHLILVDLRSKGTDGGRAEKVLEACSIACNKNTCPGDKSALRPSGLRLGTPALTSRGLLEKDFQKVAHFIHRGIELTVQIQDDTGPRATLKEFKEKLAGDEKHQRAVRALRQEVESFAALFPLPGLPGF

[3] = target: T3, E. coli L-threonine aldolase (eL-TA) (E. coli, UniProt P75823 1-333)
T3 construct: E. coli L-threonine aldolase
T3 sequence (looked up): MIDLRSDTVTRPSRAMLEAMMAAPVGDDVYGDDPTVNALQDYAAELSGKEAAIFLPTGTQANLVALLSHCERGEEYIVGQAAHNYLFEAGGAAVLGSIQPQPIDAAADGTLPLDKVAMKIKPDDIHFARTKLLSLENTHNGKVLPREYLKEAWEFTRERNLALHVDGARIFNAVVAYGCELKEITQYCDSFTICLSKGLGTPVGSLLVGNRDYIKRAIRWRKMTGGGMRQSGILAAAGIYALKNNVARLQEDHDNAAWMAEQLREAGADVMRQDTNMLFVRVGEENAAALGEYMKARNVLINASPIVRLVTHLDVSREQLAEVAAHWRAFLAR

[4] = target: T4, E. coli aspartate aminotransferase (eAATase) (E. coli, UniProt P00509 1-396)
T4 construct: E. coli aspartate aminotransferase
T4 sequence (looked up): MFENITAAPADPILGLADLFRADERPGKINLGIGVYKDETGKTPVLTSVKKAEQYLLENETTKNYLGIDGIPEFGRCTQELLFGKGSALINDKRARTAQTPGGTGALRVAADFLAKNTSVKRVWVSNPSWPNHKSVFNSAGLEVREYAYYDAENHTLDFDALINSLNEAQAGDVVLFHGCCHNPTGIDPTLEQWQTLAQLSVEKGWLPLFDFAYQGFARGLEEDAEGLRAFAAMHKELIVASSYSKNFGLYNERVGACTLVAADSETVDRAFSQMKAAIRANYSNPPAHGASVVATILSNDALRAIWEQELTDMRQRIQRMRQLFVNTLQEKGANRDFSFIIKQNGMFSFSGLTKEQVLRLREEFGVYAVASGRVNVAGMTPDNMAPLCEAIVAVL

- Kd [1]: 1700 nM
- Kd [2]: 800 nM
- Kd [3]: 12300 nM
- Kd [4]: 300 nM
B1: wild-type human pyridoxine 5′-phosphate oxidase (hPNPO) (enzyme)
chain: MTCWLRGVTATFGRPAEWPGYLSHLCGRSAAMDLGPMRKSYRGDREAFEETHLTSLDPVKQFAAWFEEAVQCPDIGEANAMCLATCTRDGKPSARMLLLKGFGKDGFRFFTNFESRKGKELDSNPFASLVFYWEPLNRQVRVEGPVKKLPEEEAECYFHSRPKSSQIGAVVSHQSSVIPDREYLRKKNEELEQLYQDQEVPKPKSWGGYVLYPQVMEFWQGQTNRLHDRIVFRRGLPTGDSPLGPMTHRGEEDWLYERLAP
modifications: labelled with fluorescein 5-maleimide (FMI) in the fluorescence polarization assay; labelled residues not stated
notes: human pyridoxine 5′-phosphate oxidase, wild type; FMI-labelled in the fluorescence polarization assay; also called FMI-labeled hPNPO; FMI-tagged hPNPO
